# Assay results: patent US20080248064A1
# Like-named read-outs stand apart in the source and are kept apart here.
# Experiments:
# [1] = target: recombinant DEN-2 virus E-glycoprotein antigen (wild type, from pCB8D2-2J-2-9-1) (dengue virus serotype 2 (carboxy-terminal 20% from JE virus)); assay: IFA, wild-type plasmid transfected cells
# [2] = target: recombinant DEN-2 virus E-glycoprotein antigen (wild type, from pCB8D2-2J-2-9-1) (dengue virus serotype 2 (carboxy-terminal 20% from JE virus))
substance,measurement,setting,value
mAb 4E5 (antibody),mAb reactivity (end point),[1],2.6
same,mAb reactivity (end point),[2],> 2.9
mAb 3H5 (antibody),mAb reactivity (end point),[1],> 4.4
same,mAb reactivity (end point),[2],> 6
mAb 4G2 (antibody),mAb reactivity (end point),[1],3.8
same,mAb reactivity (end point),[2],> 6
